{"source": "IntAct's records for PubMed 19850040", "parents": {"B1": {"name": "Post-transcriptional regulator MTA (Human herpesvirus 8), Q2HR75 (parent)", "chain": "MVQAMIDMDIMKGILEDSVSSSEFDESRDDETDAPTLEDEQLSEPAEPPADERIRGTQSAQGIPPPLGRIPKKSQGRSQLRSEIQFCSPLSRPRSPSPVNRYGKKIKFGTAGQNTRPPPEKRPRRRPRDRLQYGRTTRGGQCRAAPKRATRRPQVNCQRQDDDVRQGVSDAVKKLRLPASMIIDGESPRFDDSIIPRHHGACFNVFIPAPPSHVPEVFTDRDITALIRAGGKDDELINKKISAKKIDHLHRQMLSFVTSRHNQAYWVSCRRETAAAGGLQTLGAFVEEQMTWAQTVVRHGGWFDEKDIDIILDTAIFVCNAFVTRFRLLHLSCVFDKQSELALIKQVAYLVAMGNRLVEACNLLGEVKLNFRGGLLLAFVLTIPGMQSRRSISARGQELFRTLLEYYRPGDVMGLLNVIVMEHHSLCRNSECAAATRAAMGSAKFNKGLFFYPLS"}}, "data": [{"variants_of": "B1", "details": "with thoc4_human ALYREF", "values": [{"variant": "K107E", "effect of a mutation on the interaction": "disrupting interaction"}, {"variant": "K104N", "effect of a mutation on the interaction": "disrupting interaction"}, {"variant": "K105N", "effect of a mutation on the interaction": "disrupting interaction"}]}]}
